# In publication PMC2192027:
# What was measured:
# [1] = target: recombinant full-length luminal segment of CLIMP-63 (amino acids 127–601) (UniProt Q07065); test: AUC
# [2] = target: CLIMP-63 luminal fragment 268–459 (UniProt Q07065); test: AUC
Substance,percent sedimenting at 26 S (1.5 M urea) [1] [%],percent sedimenting at 26 S (2 M urea) [1] [%],percent sedimenting at 26 S (2.5 M urea) [1] [%],stoichiometry N [2]
recombinant full-length luminal segment of CLIMP-63 (amino acids 127–601) (from UniProt Q07065 127-601) (domain or fragment),80,50,20,–
CLIMP-63 luminal fragment 268–459 (from UniProt Q07065 268-459) (domain or fragment),–,–,–,2
